Laboratory results as given in the supplement of paper PMC10724198.
± gives the standard deviation of the averaged measurements.

Legend:
Saccharomyces cerevisiae [1] = assay: protein stability index of tFT-peptide fusion (C-terminal peptide) (PSI (0-1 scale)); higher = more stable (slower turnover)
Description: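 MPS profiling in S. cerevisiae of the tFT-X12 degron library: putative degron peptides plus stable controls, 12 aa, fused to the C-terminus of a sfGFP-mCherry timer. Cells are FACS-sorted into 8 mCherry/sfGFP bins and deep-sequenced. PSI runs from 0 (unstable) to 1 (stable). Backgrounds are wild type, das1Δ and doa10Δ at 30 °C, and wild type, das1Δ, cdc34-1 and cdc53-1 at 37 °C; 2-3 technical replicates each.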

Saccharomyces cerevisiae [2] = assay: as above; settings: genetic background: wild type; temperature: 30 C
[3] = genetic background: cdc34-1, temperature: 37 C
[4] = genetic background: cdc53-1, temperature: 37 C
[5] = genetic background: das1 deletion, temperature: 30 C
[6] = genetic background: das1 deletion, temperature: 37 C
[7] = genetic background: doa10 deletion, temperature: 30 C
[8] = genetic background: wild type, temperature: 30 C
[9] = genetic background: wild type, temperature: 37 C
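Also: PSI is a weighted mean of sequencing reads over stability bins, variants kept only with over 10 reads, mCherry proximal and sfGFP distal, peptide attached via GGGS linker.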

Sequence	protein stability index (Saccharomyces cerevisiae [1]; [3])	protein stability index (Saccharomyces cerevisiae [1]; [4])	protein stability index (Saccharomyces cerevisiae [1]; [5])	protein stability index (Saccharomyces cerevisiae [1]; [6])	protein stability index (Saccharomyces cerevisiae [1]; [7])	protein stability index (Saccharomyces cerevisiae [1]; [8])	protein stability index (Saccharomyces cerevisiae [1]; [9])	protein stability index (Saccharomyces cerevisiae [2])
LVFSVIPVLFVL	0.454 ± 0.011	0.474 ± 0.025	0.355 ± 0.015	0.528 ± 0.017	0.328 ± 0.015	0.318 ± 0.022	0.461 ± 0.027	0.419 ± 0.087
RHSFSRVKLIQF	0.593 ± 0.046	0.6834 ± 0.00096	0.65 ± 0.032	0.732 ± 0.0089	0.0871 ± 0.021	0.0925 ± 0.033	0.117 ± 0.0029	0.113 ± 0.033
FIFLFVALFCVF	0.31 ± 0.039	0.343 ± 0.0083	0.327 ± 0.017	0.404 ± 0.014	0.328 ± 0.012	0.29 ± 0.021	0.365 ± 0.036	0.353 ± 0.067
LLLSSILLILSS	0.357 ± 0.033	0.409 ± 0.0057	0.29 ± 0.018	0.465 ± 0.023	0.2369 ± 0.00081	0.272 ± 0.024	0.459 ± 0.063	0.34 ± 0.019
LQFSLPCFLLIF	0.145 ± 0.0042	0.134 ± 0.022	0.205 ± 0.019	0.253 ± 0.0062	0.211 ± 0.0099	0.159 ± 0.015	0.208 ± 0.019	0.221 ± 0.033
VFSAGFSTISLF	0.745 ± 0.037	0.792 ± 0.03	0.678 ± 0.049	0.789 ± 0.012	0.6674 ± 0.0061	0.666 ± 0.012	0.741 ± 0.011	0.704 ± 0.39
LVLVLAVFGCHD	0.397 ± 0.022	0.543 ± 0.079	0.305 ± 0.03	0.563 ± 0.02	0.284 ± 0.014	0.319 ± 0.036	0.477 ± 0.024	0.42 ± 0.061
FQILLRFFRSVA	0.5907 ± 0.0037	0.657 ± 0.025	0.551 ± 0.022	0.612 ± 0.0079	0.189 ± 0.003	0.206 ± 0.029	0.4 ± 0.017	0.324 ± 0.017
WFGGVRVPRHVV	0.651 ± 0.034	0.709 ± 0.027	0.668 ± 0.018	0.7484 ± 0.0044	0.394 ± 0.024	0.448 ± 0.018	0.645 ± 0.026	0.455 ± 0.032
VWEKGVCGRMVG	0.676 ± 0.015	0.7689 ± 0.0024	0.652 ± 0.021	0.744 ± 0.037	0.639 ± 0.012	0.6609 ± 0.0066	0.7276 ± 0.0072	0.703 ± 0.0081
IFWAKRNLVRVT	0.382 ± 0.0086	0.421 ± 0.011	0.307 ± 0.029	0.478 ± 0.0088	0.201 ± 0.0051	0.251 ± 0.025	0.402 ± 0.0096	0.363 ± 0.028
LLFVVGTGRWVG	0.665 ± 0.022	0.736 ± 0.011	0.629 ± 0.029	0.744 ± 0.024	0.159 ± 0.0042	0.183 ± 0.033	0.482 ± 0.035	0.302 ± 0.046
FLVLLFCLFFCF	0.463 ± 0.053	0.447 ± 0.021	0.43 ± 0.024	0.552 ± 0.015	0.524 ± 0.007	0.43 ± 0.033	0.4952 ± 0.0042	0.462 ± 0.026
FVCSSVFVVLLF	0.349 ± 0.017	0.423 ± 0.023	0.295 ± 0.029	0.4769 ± 0.001	0.264 ± 0.017	0.294 ± 0.054	0.464 ± 0.026	0.45 ± 0.044
KRLRDFLVIMCS	0.198 ± 0.024	0.2289 ± 0.0013	0.24 ± 0.03	0.358 ± 0.0079	0.112 ± 0.0067	0.118 ± 0.019	0.098 ± 0.02	0.196 ± 0.014
VVTICVASWSGL	0.521 ± 0.038	0.573 ± 0.011	0.352 ± 0.017	0.54018 ± 4.7e-05	0.362 ± 0.029	0.36 ± 0.027	0.532 ± 0.012	0.42 ± 0.0091
VEFSLYVVFFLV	0.2152 ± 0.00048	0.344 ± 0.024	0.248 ± 0.029	0.437 ± 0.028	0.0993 ± 0.013	0.109 ± 0.018	0.154 ± 0.0063	0.211 ± 0.0088
PFDTPSHPNPLF	0.707 ± 0.034	0.789 ± 0.086	0.69 ± 0.026	0.777 ± 0.024	0.711 ± 0.026	0.729 ± 0.014	0.762 ± 0.019	0.744 ± 0.037
RFLCFDSVLTLC	0.626 ± 0.011	0.6674 ± 0.0055	0.56 ± 0.028	0.6748 ± 0.00086	0.32119 ± 0.00015	0.348 ± 0.026	0.546 ± 0.02	0.463 ± 0.024
